B4: hOX40R-Fc (Fc fusion, human, UniProt P43489 29-214, looked up)
chain: LHCVGDTYPSNDRCCHECRPGNGMVSRCSRSQNTVCRPCGPGFYNDVVSSKPCKPCTWCNLRSGSERKQLCTATQDTVCRCRAGTQPLDSYKPGVDCAPCPPGHFSPGDNQACKPWTNCTLAGKHTLQPASNSSDAICEDRDPPATQPQETQGPPARPITVQPTEAWPRTSQGPSTRPVEVPGGRA
notes: Defined as 'the human IgG Fc domain fused to the human OX40 receptor'; also called hFc-OX40R; HFc-OX40R; not shown: Fc domain of human IgG
B6: Human Fc-OX40L (Fc fusion, UniProt P23510 51-183, looked up)
chain: QVSHRYPRIQSIKVQFTEYKKEKGFILTSQKEDEIMKVQNNSVIINCDGFYLISLKGYFSQEVNISLHYQKDEEPLFQLKKVRSVNSLMVASLTYKDKVYLNVTTDNTSLDDFHVNGGELILIHQNPGEFCVL
notes: Defined as 'the Fc domain of human IgG fused to human OX40L'; Made in 293T or COS cells; also called hFc-OX40L; HFc-OX40L; not shown: Fc domain of human IgG

Experiment [1] concerns the target B6. Nature of the experiment: cell-based or functional assay.
The target of experiment [2] is B6. Kind of experiment: BIAcore, immobilized hFc-OX40L. On the technique in general: In SPR one partner is held on a chip, and binding of the other changes the refractive index at the surface.
Experiment [3] addresses B6. Nature of the experiment: BIAcore solution equilibrium at 0.2 and 0.6 nM binder, dual-curve one-site fit (KinExA software). On the procedure: (§1) Specifically, BIACore chips were prepared as described above in Example 1, with the following modifications. HFc-OX40L was immobilized to the sensor chip at a high density of 8,000 RU. […] Samples were incubated at room temperature for at least five hours to allow samples to reach equilibrium. Samples were then injected over the immobilized hFc-OX40L surface for 30 minutes at 10 μl/min. After the sample injection, the samples were allowed to dissociate for 3 minutes, and then the surface was regenerated by injecting 8 mM glycine, pH 3.0, 1 M NaCl for 30 seconds. The binding signals, measured in RU, obtained were proportional to the free antibody in solution at equilibrium for a given concentration of ligand. The dissociation equilibrium constant (KD) was obtained from nonlinear regression analysis of the competition curves using a dual-curve one-site homogeneous binding model (KinExA software v. 2.3, Sapidyne Instruments Inc., Boise Id.).

The target of experiment [4] is T1, 018-muOX40L (mouse, UniProt P43488).
T1 construct: also called mouse OX40L
T1 sequence (bead-bound control antigen, looked up): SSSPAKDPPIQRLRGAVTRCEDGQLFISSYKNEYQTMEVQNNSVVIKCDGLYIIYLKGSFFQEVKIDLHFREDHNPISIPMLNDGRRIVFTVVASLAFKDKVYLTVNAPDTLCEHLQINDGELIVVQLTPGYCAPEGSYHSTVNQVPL
Nature of the experiment: Luminex bead assay: antigen loaded on biotin beads, antibody titrated, detection anti-huIgG-PE [panel Ab F].

Experiment [5] addresses B6. Nature of the experiment: BIAcore solution equilibrium: 0.2 nM antibody pre-mixed with 20-0.005 nM hFc-OX40L, free antibody read on immobilized hFc-OX40L. On the procedure:
The binding equilibrium of four of the antibodies was assessed on a BIACore chip as described above in Example 1 with the following modifications. HFc-OX40L was immobilized to the sensor chip at a high density of 8,000 RU. Serial 2.5-fold dilutions of hFc-OX40L were prepared in sample buffer so that the final concentration of hFc-OX40L, once mixed with an anti-OX40L antibody, ranged between 20 nM to 0.005 nM. Monoclonal anti-OX40L antibody candidates were mixed with each hFc-OX40L dilution in a total of 400 μl so that the final concentration of monoclonal antibody was 0.2 nM. Samples were incubated at room temperature for at least five hours to allow samples to reach equilibrium. Samples were then injected over the immobilized hFc-OX40L surface for 30 minutes at 10 μl/min. After the sample injection, the samples were allowed to dissociate for 3 minutes, and then the surface was regenerated by injecting 8 mM glycine, pH 3.0, 1 M NaCl for 30 seconds. The binding signals obtained were proportional to the free antibody in solution at equilibrium for a given concentration of ligand. Plotting the binding signal versus ligand concentration, and using the scientific graphing software program GraphPad Prizm, the EC₅₀ values for each antibody at a given concentration in the presence of varying concentrations of hFc-OX40L were calculated.

The experiment “hOX40R-Fc” has as its target B4. Kind of experiment: BIAcore solution equilibrium at 0.2 and 0.6 nM binder, dual-curve one-site fit (KinExA software). On the procedure: as §1
In experiment [6] the target is T1, 018-muOX40L. Nature of the experiment: Luminex bead assay: antigen loaded on biotin beads, antibody titrated, detection anti-huIgG-PE [panel Ab C].

B1: Ab A (antibody, V domains shown)
VH: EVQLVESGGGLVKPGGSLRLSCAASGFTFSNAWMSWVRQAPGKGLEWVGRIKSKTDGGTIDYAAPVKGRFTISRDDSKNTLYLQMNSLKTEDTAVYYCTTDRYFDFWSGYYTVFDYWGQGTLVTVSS
VL: DIQMTQSPSSLSASVGDRVTITCRASQGISNHLVWYQQKVGKVPKLLIYAASTLQSGVPSRFSGSGSGTDFTLTISSLQPEDVATYYCQKFNSAPFTFGPGTKVDIKR
notes: Human anti-OX40L monoclonal antibody from transgenic mice
As a reminder, the EC50 is the concentration needed to bring the measured effect to its halfway point. Low readings indicate higher potency in that assay, high ones lower potency in that assay. In the case of B1, the “IL-2 Inhibition (IC50 [nM])” value in the experiment with Human Fc-OX40L [1] is 0.32 nM. In the experiment with Human Fc-OX40L [2], this molecule registered an EC50 of 1 nM.

B2: Ab F (antibody, V domains shown)
VH: EVQLVESGGGLVKPGGSLRLSCAASGFTFSNAWMSWVRQAPGKGLEWVGRIKRKTDGGTIDYAAPVKGRFTISRADSKNTLFLQMNSLITEDTAVYYCTISYYYDYSGYYYVDHWGQGTLVTVSS
VL: DIQMTQSPSSLSASVGDRVTITCRASQGISNHLVWYQQKPGKVPKLLIYAASTLQSGVPSRFSGSGSGTDFTLTISSLQPEDVATYYCQKYNSAPLTFGGGTKVEIKR
notes: Human anti-OX40L monoclonal antibody
For orientation: Kd means the concentration at which binding is half-saturated. A lower Kd goes with tighter binding. In the experiment with Human Fc-OX40L [3], B2 registered a Kd of 0.12 nM. Besides, the binding result in the experiment with 018-muOX40L [4] is “no binding (tested: 100 nM)”. This molecule showed an EC50 with Human Fc-OX40L [5] of 0.402 nM.

B3: Ab E (antibody, V domains shown)
VH: EVQLVESGGGLVKPGGSLRLSCAASGFTFSNAWMSWVRQAPGKGLEWVGRIKRKTDGGTIDYAAPVKGRFTISRADSKNTLFLQMNSLITEDTAVYYCTISYYYDYSGYYYVDHWGQGTLVTVSS
VL: DIQMTQSPSSLSASVGDRVTITCRASQGISNHLVWYQQKPGKVPKLLIYAASTLQSGVPSRFSGSGSGTDFTLTISSLQPEDVATYYCQKYNSAPLTFGGGTKVEIKR
notes: as for B2
Turning to B3, the “IL-2 Inhibition (IC50 [nM])” value in the experiment with Human Fc-OX40L [1] was found to be 0.58 nM. The EC50 in the experiment with Human Fc-OX40L [2] stood at 0.69 nM; with Human Fc-OX40L [5], 0.686 nM.

On to B4, for which the “IL-2 Inhibition (IC50 [nM])” value in the experiment with Human Fc-OX40L [1] was 5.2 nM. Besides, the EC50 with Human Fc-OX40L [2] turned out to be 1 nM.

B5: Ab B (antibody, V domains shown)
VH: QVQLQESGPGLVKPSETLSLTCTVSGGSISTYYWNWIRQPAGKGLEWIGRIYISGSTNYNPSLKSRVTMSVDTSKNQFSLKLSSVTAADTAVYYCARDRVDIVATKGHYYYGMDVWGQGTTVTVSS
VL: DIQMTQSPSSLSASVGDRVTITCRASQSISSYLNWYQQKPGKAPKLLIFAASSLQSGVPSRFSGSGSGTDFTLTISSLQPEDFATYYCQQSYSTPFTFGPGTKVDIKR
notes: as for B2
On to B5, for which, in the experiment with Human Fc-OX40L [1], the “IL-2 Inhibition (IC50 [nM])” value is 0.49 nM. For the same molecule, in the experiment with Human Fc-OX40L [2], the midpoint of the response, the EC50, lay at 0.6 nM.

The molecule B6 returned a Kd with hOX40R-Fc of 1 nM.

B7: Ab C (antibody, V domains shown)
VH: QVQLVESGGGVVQPGRSLRLSCAASGFTFSFYGMHWVRQAPGKGLEWVAVIWYDGSNKYYADSVKGRFTISRDNSKNTLYLQMNSLRAEDTAVYYCARGGYDYVWGSYRRNSDFDYWGQGTLVTVSS
VL: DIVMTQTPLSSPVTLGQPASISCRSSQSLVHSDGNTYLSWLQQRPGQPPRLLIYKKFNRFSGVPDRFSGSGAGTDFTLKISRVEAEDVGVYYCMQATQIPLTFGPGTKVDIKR
notes: as for B2
In the case of B7, the “IL-2 Inhibition (IC50 [nM])” value with Human Fc-OX40L [1] was 2 nM. Also, the EC50 with Human Fc-OX40L [2] came to 0.1 nM; with Human Fc-OX40L [5], 0.101 nM. In the experiment with Human Fc-OX40L [3], this molecule yielded a Kd of 0.033 nM. Moreover, the binding result with 018-muOX40L [6] is “no binding (tested: 100 nM)”.

The record behind these values is patent US20060002929A1 (published 2006).
